Experiments:
Type in all cases: cell-based, mouse
KCC2 mRNA = experiment: RT-qPCR of mRNA abundance; details: control neurons, BDNF 100 ng/mL, 2 hours
Description: For analysis of mRNA abundance: 1 μg of RNA was immediately reverse-transcribed into cDNA with a taqman reverse transcripton kit (Applied Biosystems) and a mixture of random decamer and oligo(dT) primers in a final volume of 30 μL and subjected to TaqMan Gene Expression Assays (Applied Biosystems) for GluR1 (assay ID: Mm00433753_m1), CaMKIIu (Mm00437967_m1), Homer2 (Mm01314936_m1), KCC2 (Mm00803929_m1), Kv1.1 (Mm00439977_s1), GW182 (Mm00523487_m1), GAPDH (Mm99999915_g1), and β-tubulin-III (Mm00727586_s1). RT-qPCR was performed using a Stratagene Mx3000P machine and software in 20 μL reactions on a 96-well optical plate at 95° C. for 5 min, followed by 40 cycles of 95° C. for 30 sec, 55° C. for 1 min and 72° C. for 30 sec. The threshold and threshold cycle (Ct) values were determined using default settings. Standard curves were constructed and used for quantitation of target transcript abundance. In this method, 1:5 dilution series of an independent Standard sample are amplified to generate a curve that relates the initial quantity of the specific target in the Standard samples to the Ct. The standard curve is then used to derive by interpolation the initial sample template quantities based on their Ct values. All derived quantities were further normalized to neuron-specific β-tubulin III, whose translational status is unchanged by BDNF (Schratt et al., 2004). […]

[1] = system: Let-7 family, miR-107, miR-143; experiment: Individual TaqMan RT-qPCR of mature miRNA levels; details: BDNF vs mock, normalized to 18s rRNA
Description: For individual microRNA abundance assays (Applied Biosystems), 100 ng of total isolated RNA was prepared for reverse transcription with stem-looped primers specific for individual mature miRNAs in a final volume of 15 μL according to manufacturer's protocol; 4° C. for 5 min, 16° C. for 30 min, 42° C. for 30 min, 85° C. for 5 min. and subjected to TaqMan MicroRNA Assays (Applied Biosystems) for Let-7a (assay ID: 000377), Let-7b (002619), Let-7e (002406), Let-7f1 (000382), miR-107 (000443) and miR-143 ([…]). RT-qPCR was performed using a Stratagene Mx3000P machine and software with quantities derived by standard-curve quantitation method. The abundance of non-coding 18s rRNA in each sample was used as an internal control to normalize all miRNA species.

Lin28a = experiment: Immunoblotting for Lin28a; details: mature neurons, by 5 min following BDNF exposure
Description: Primary cultures of mouse hippocampal neurons (DIV 14 15) were incubated in serum-reduced medium (0.5% B27 supplement) for 2 hours, followed by […] Actinomycin-D for 10-20 min. Bath application of BDNF (100 ng/mL) was for designated periods (5 min-2 hours). The cultures were washed 3 times and harvested on ice with lysis buffer (50 mM Hepes, 150 mM NaCl, 10% Glycerol, 1 mM EDTA, 1% Triton-X-100, 0.2% SDS) plus freshly added protease inhibitor cocktail (Roche) and PMSF. Protein concentration was determined by Bradford Assay. If required, lysates were treated with Lambda Protein Phosphatase according to manufacturer's instructions (New England Biolabs […]). Equal amounts of lysate protein were resolved on SDS-PAGE gels, and electrotransferred to PVDF membrane. […]

mature miRNA = experiment: miRNA profiling arrays (Taqman Rodent MicroRNA Array A); details: BDNF 30 min, plus Actinomycin-D
Description: Murine hippocampal cultures were preincubated for 10-20 minutes with […] Actinomycin D and either mock- or BDNF- (100 ng/mL) stimulated for 30 minutes before harvesting.
For miRNA arrays, […] of total RNA for each sample was reverse-transcribed with stem-looped Megaplex RT Primers (Applied Biosystems) in a final volume of 7.5 μL according to manufacturer's instructions: preincubation at 4° C. for 5 min; 16° C. for 2 min, 42° C. for 1 min, 50° C. for 1 sec, 40 cycles; 85° C. for 5 min. The entire cDNA RT product (7.5 μk) was subjected to RT-qPCR on an Applied Biosystems 7900HT Fast Real-Time PCR system using Taqman Rodent MicroRNA Array A. Data were compiled in SDS RQ Manager 1.2.1 and analyzed in Data Assist 2.0 (Applied Biosystems); RQ was calculated as 2^−LCtBDNF/2^LCtmock where LCt=(cycle threshold for miRNA of interest)−(cycle threshold for reference control) (Schmittgen and Livak, 2008). Thresholds and cycle threshold (Ct) values were determined using default settings and the maximum allowable Ct value was set at 35.0 inclusive. Data were normalized by arithmetic mean using MammU6 (4395470) and snoRNA202 (4380914) reference RNAs as controls. miRNA array data are reposited with the NCBI Gene Expression Omnibus (GEO). […]

Let-7a = experiment: Northern blot of pre- and mature Let-7a; details: BDNF-treated (30 min) neurons
Description: Northern blots were carried out as described (Hwang et al., 2007), using the following LNA probes from Exiqon: Let-7a (5′ […] 3′; SEQ ID NO: 1), pre-Let-7a (5′ GTGGGTGTGACCCTA 3′; SEQ ID NO: 2), miR-17 (5′ […] 3′; SEQ ID NO: 3) and quantified by phosphoimaging.

B1: BDNF: brain-derived neurotrophic factor, a neurotrophin used to stimulate hippocampal neurons (protein, UniProt P23560 19-247, looked up)
Neurotrophic factor BDNF …: APMKEANIRGQGGLAYPGVRTHGTLESVNGPKAGSRGLTSLADTFEHVIEELLDEDQKVRPNEENNKDADLYTSRVMLSSQVPLEPPLLFLLEEYKNYLDAANMSMRVRRHSDPARRGELSVCDSISEWVTAADKKTAVDMSGGTVTVLEKVPVSKGQLKQYFYETKCNPMGYTKEGCRGIDKRHWNSQCRTTQSYVRALTMDSKKRIGWRFIRIDTSCVCTLTIKRGR
KCC2 mRNA levels (KCC2 mRNA): reduced mRNA levels | abundance of Let-7 family members, miR-107 and miR-143 [1]: significant and reproducible BDNF-induced decreases in abundance | Lin28a protein (Lin28a): robust and rapid transcription-independent increase in Lin28a | detectable miRNAs with significantly altered levels decreased to <50% (mature miRNA): 10.6% | detectable miRNAs with significantly altered levels increased more than 2-fold (mature miRNA): 89.4% | pre-Let7 and mature Let-7 miRNA levels (Let-7a): significant decreases

Reference: patent US20150148405A1, “Expression Construct for a Lin28-Resistant Let-7 Precursor MicroRNA” (THE JOHNS HOPKINS UNIVERSITY, priority 2012, published 2015)
